The assay addresses T1, YFP-STIM1 233–485 (human, UniProt Q13586-1 233-485).
T1 construct: the YFP fluorescence is the read-out of the thermophoresis; also called STIM1 233–485 C-terminal fragment; slightly extended OASF fragment; source: HEK293, transfected, in lysate (supernatant after Nonidet P40 lysis)
In words: MST; monolith NT.115 (Nanotemper); YFP-STIM1 233–485 (or free YFP) in HEK293 cell lysate kept constant, Orai1 peptide varied, up to 16 dilutions, 5 min incubation, glass capillaries; curve fitted to a one-site binding model. To be noted: one partner purified.

T1 sequence (Q13586 233-485): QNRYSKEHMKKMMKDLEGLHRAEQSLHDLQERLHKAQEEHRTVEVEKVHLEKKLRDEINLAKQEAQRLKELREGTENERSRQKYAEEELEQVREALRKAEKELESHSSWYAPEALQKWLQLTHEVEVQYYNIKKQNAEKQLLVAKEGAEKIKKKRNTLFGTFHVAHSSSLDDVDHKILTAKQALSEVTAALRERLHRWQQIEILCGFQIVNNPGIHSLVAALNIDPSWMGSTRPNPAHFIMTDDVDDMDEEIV

B1: Orai1 aa70–91 L74E/W76E N-terminal peptide (peptide, UniProt Q96D31-1 70-91, looked up)
peptide: SMQAESERKLYLSRAKLKASSR
notes: also called Orai1 NT(aa70–91 L74E/W76E); source: synthetic peptide, bought: peptide 2.0
As a reminder, the Kd is the concentration at which binding is half-saturated. The molecule B1 had an equilibrium dissociation constant (Kd) of 406 ± 68 µM.

B2: Orai1 N-terminal peptide aa77–91 (peptide, UniProt Q96D31-1 77-91, looked up)
peptide: RKLYLSRAKLKASSR
notes: also called Orai1 NT(aa77–91); Orai1 aa77–91; source: synthetic peptide, bought: peptide 2.0
As to B2, the Kd was more than 4700 µM.

The record behind these values is PMC3790000, “The Extended Transmembrane Orai1 N-terminal (ETON) Region Combines Binding Interface and Gate for Orai1 Activation by STIM1*^([image sbox.jpg])^♦” (The Journal of Biological Chemistry, 2013).
